Laboratory results published in patent publication KR20190060702A (dated 2019).

Target: T1, 사람 ICAM4 (intercellular adhesion molecule 4) (human, UniProt Q14773 31-271)
T1 construct: whole, on cells; Always on cells that carry it naturally; no recombinant ICAM4 was used; also called CD242; 1E1 항원
T1 sequence (looked up): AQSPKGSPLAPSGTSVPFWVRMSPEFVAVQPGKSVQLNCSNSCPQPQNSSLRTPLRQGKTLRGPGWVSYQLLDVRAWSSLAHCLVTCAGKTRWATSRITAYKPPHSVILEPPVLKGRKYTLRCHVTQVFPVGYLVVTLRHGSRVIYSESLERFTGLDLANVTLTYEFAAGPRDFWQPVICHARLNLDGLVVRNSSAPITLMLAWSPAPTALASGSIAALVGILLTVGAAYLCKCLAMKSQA
Test: binding affinity compared with the chimeric antibody (Fig. 5)

B1: 항-ICAM4 인간화항체 VH2A 및 VL2C의 조합 (antibody, V domains shown)
VH: QVQLVESGGGLVKPGGSLRLSCAVSGFSLTDYGVGWIRQAPGKGLEWLGVMWGGGRTYYNAPVKSRLTISKDNAKNSVYLQMNSLRAEDTAVYYCVKTGQDYAVDYWGQGTLVTVSS
VL: EIVLTQSPATLSLSPGERATLSCRASKSVSKYLAWYQEKPGQANRLLIYSGSTLQSGIPARFSGSGSGTDFTLTISSLEPEDFAVYYCQQHNVYPWTFGQGTKVEIK
notes: also called VH2A/VL2C
binding result: binds
